B1: Discoidin, CUB and LCCL domain-containing protein 2 (Homo sapiens), Q96PD2 (parent)
chain: MASRAVVRARRCPQCPQVRAAAAAPAWAALPLSRSLPPCSNSSSFSMPLFLLLLLVLLLLLEDAGAQQGDGCGHTVLGPESGTLTSINYPQTYPNSTVCEWEIRVKMGERVRIKFGDFDIEDSDSCHFNYLRIYNGIGVSRTEIGKYCGLGLQMNHSIESKGNEITLLFMSGIHVSGRGFLASYSVIDKQDLITCLDTASNFLEPEFSKYCPAGCLLPFAEISGTIPHGYRDSSPLCMAGVHAGVVSNTLGGQISVVISKGIPYYESSLANNVTSVVGHLSTSLFTFKTSGCYGTLGMESGVIADPQITASSVLEWTDHTGQENSWKPKKARLKKPGPPWAAFATDEYQWLQIDLNKEKKITGIITTGSTMVEHNYYVSAYRILYSDDGQKWTVYREPGVEQDKIFQGNKDYHQDVRNNFLPPIIARFIRVNPTQWQQKIAMKMELLGCQFIPKGRPPKLTQPPPPRNSNDLKNTTAPPKIAKGRAPKFTQPLQPRSSNEFPAQTEQTTASPDIRNTTVTPNVTKDVALAAVLVPVLVMVLTTLILILVCAWHWRNRKKKTEGTYDLPYWDRAGWWKGMKQFLPAKAVDHEETPVRYSSSEVNHLSPREVTTVLQADSAEYAQPLVGGIVGTLHQRSTFKPEEGKEAGYADLDPYNSPGQEVYHAYAEPLPITGPEYATPIIMDMSGHPTTSVGQPSTSTFKATGNQPPPLVGTYNTLLSRTDSCSSAQAQYDTPKAGKPGLPAPDELVYQVPQSTQEVSGAGRDGECDVFKEIL

How the values were obtained:
crkl_human CRKL, P46109 = variants of: B1; details: with crkl_human CRKL
crkl_human CRKL, P46109, sequence (P46109 whole entry): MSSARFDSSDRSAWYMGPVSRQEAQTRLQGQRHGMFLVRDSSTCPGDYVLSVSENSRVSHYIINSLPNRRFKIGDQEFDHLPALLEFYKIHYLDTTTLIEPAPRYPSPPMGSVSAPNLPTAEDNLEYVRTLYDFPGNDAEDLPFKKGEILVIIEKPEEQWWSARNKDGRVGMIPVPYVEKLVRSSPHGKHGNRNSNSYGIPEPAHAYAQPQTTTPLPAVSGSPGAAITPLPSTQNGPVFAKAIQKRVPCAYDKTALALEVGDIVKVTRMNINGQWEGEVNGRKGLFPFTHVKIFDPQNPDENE

fyn_human FYN, P06241 = variants of: B1; details: with fyn_human FYN
fyn_human FYN, P06241, sequence (P06241 whole entry, looked up): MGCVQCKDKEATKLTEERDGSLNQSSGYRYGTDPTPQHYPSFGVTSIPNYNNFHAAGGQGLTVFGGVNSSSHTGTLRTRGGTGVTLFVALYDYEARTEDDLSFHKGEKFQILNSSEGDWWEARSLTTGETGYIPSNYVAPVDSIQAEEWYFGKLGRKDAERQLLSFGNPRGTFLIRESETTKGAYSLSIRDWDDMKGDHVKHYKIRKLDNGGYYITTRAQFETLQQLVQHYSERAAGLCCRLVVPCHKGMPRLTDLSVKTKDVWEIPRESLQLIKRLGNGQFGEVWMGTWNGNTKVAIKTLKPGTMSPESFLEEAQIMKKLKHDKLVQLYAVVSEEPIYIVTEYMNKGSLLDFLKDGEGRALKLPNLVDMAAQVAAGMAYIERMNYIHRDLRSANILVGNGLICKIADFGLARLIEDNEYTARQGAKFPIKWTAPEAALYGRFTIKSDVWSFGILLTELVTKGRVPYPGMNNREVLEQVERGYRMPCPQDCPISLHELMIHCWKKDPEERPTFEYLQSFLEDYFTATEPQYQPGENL

| Variant | effect of a mutation on the interaction (crkl_human CRKL, P46109) | effect of a mutation on the interaction (fyn_human FYN, P06241) |
| --- | --- | --- |
| Y621F | disrupting interaction | disrupting interaction |
| Y565F | disrupting interaction | disrupting interaction |
| Y655F | disrupting interaction | disrupting interaction |

The remaining lines, values ahead:

| effect of a mutation on the interaction (crkl_human CRKL, P46109) | effect of a mutation on the interaction (fyn_human FYN, P06241) | Variant |
| --- | --- | --- |
| disrupting interaction | disrupting interaction | Y666F |
| disrupting interaction | disrupting interaction | Y732F |
| disrupting interaction | disrupting interaction | Y677F |
| disrupting interaction | disrupting interaction | Y750F |

— IntAct's records for PubMed 23770091
